Test results reported in PMC10397247.

Tests used:
Experiment in all cases: two-hybrid library CCmax;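 also: natural log of median RNA to DNA barcode read ratio; higher means stronger binding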
4H_GCN4 = target: 4H_GCN4
4H688-AA = target: T1, 4H688-AA; settings: mean of both orientations
T1 chain: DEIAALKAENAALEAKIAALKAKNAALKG

4H_APH = target: T2, 4H_APH; settings: mean of both orientations
T2 chain: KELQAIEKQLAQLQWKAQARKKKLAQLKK

GCN2_T = target: GCN2_T
4H963-AA = target: T3, 4H963-AA; settings: mean of both orientations
T3 chain: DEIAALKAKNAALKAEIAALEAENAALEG

4H56-AA = target: T4, 4H56-AA; settings: mean of both orientations
T4 chain: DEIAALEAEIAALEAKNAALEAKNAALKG

4H406-AA = target: T5, 4H406-AA
T5 chain: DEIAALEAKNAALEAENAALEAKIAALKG

4H_BCR = target: T6, 4H_BCR; settings: mean of both orientations
T6 chain: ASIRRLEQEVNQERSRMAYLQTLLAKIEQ

4H452-AA = target: T7, 4H452-AA; settings: mean of both orientations
T7 chain: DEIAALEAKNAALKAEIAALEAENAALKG

4H3940-AA = target: T8, 4H3940-AA; settings: mean of both orientations
T8 chain: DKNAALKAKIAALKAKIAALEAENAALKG

4H87-AA = target: T9, 4H87-AA; settings: mean of both orientations
T9 chain: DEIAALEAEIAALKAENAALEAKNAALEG

4H816-AA = target: T10, 4H816-AA; settings: mean of both orientations
T10 chain: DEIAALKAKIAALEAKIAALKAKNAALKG

4H775-AA = target: T11, 4H775-AA; settings: mean of both orientations
T11 chain: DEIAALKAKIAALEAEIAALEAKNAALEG

4H3409-AA = target: T12, 4H3409-AA
T12 chain: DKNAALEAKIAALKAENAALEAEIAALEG

4H3625-AA = target: T13, 4H3625-AA; settings: mean of both orientations
T13 chain: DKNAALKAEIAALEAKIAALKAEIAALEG

4H510-AA = target: T14, 4H510-AA; settings: mean of both orientations
T14 chain: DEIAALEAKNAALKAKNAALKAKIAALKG

4H390-AA = target: T15, 4H390-AA; settings: mean of both orientations
T15 chain: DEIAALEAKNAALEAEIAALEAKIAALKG

4H930-AA = target: T16, 4H930-AA; settings: mean of both orientations
T16 chain: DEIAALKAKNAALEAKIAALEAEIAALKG

4H3130-AA = target: T17, 4H3130-AA; settings: mean of both orientations
T17 chain: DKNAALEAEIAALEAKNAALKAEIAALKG

4H3016-AA = target: T18, 4H3016-AA; settings: mean of both orientations
T18 chain: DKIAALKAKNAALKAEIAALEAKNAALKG

4H485-AA = target: T19, 4H485-AA
T19 chain: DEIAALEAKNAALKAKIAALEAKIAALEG

4H3590-AA = target: T20, 4H3590-AA; settings: mean of both orientations
T20 chain: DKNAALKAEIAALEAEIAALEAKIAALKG

4H310-AA = target: T21, 4H310-AA; settings: mean of both orientations
T21 chain: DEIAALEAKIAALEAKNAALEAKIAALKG

4H2865-AA = target: T22, 4H2865-AA; settings: mean of both orientations
T22 chain: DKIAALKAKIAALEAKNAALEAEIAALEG

4H3381-AA = target: T23, 4H3381-AA; settings: mean of both orientations
T23 chain: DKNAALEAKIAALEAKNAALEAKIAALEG

4H458-AA = target: T24, 4H458-AA; settings: mean of both orientations
T24 chain: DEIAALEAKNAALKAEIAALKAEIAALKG

4H2725-AA = target: T25, 4H2725-AA; settings: mean of both orientations
T25 chain: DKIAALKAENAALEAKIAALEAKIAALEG

4H909-AA = target: T26, 4H909-AA; settings: mean of both orientations
T26 chain: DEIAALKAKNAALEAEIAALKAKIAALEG

4H710-AA = target: T27, 4H710-AA; settings: mean of both orientations
T27 chain: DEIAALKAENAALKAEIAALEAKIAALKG

4H94-AA = target: T28, 4H94-AA; settings: mean of both orientations
T28 chain: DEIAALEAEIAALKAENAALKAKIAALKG

4H2473-AA = target: T29, 4H2473-AA; settings: mean of both orientations
T29 chain: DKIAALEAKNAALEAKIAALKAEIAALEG

4H570-AA = target: T30, 4H570-AA; settings: mean of both orientations
T30 chain: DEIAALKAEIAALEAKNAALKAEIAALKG

4H3865-AA = target: T31, 4H3865-AA; settings: mean of both orientations
T31 chain: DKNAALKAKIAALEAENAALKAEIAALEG

4H850-AA = target: T32, 4H850-AA; settings: mean of both orientations
T32 chain: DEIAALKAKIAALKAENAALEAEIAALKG

4H629-AA = target: T33, 4H629-AA; settings: mean of both orientations
T33 chain: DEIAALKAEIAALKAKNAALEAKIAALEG

4H2649-AA = target: T34, 4H2649-AA; settings: mean of both orientations
T34 chain: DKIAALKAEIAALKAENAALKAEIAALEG

4H3410-AA = target: T35, 4H3410-AA; settings: mean of both orientations
T35 chain: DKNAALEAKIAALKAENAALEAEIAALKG

4H891-AA = target: T36, 4H891-AA; settings: mean of both orientations
T36 chain: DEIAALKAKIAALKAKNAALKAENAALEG

4H2438-AA = target: T37, 4H2438-AA; settings: mean of both orientations
T37 chain: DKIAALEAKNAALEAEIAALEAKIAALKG

4H3165-AA = target: T38, 4H3165-AA; settings: mean of both orientations
T38 chain: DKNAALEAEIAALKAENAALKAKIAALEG

4H3120-AA = target: T39, 4H3120-AA; settings: mean of both orientations
T39 chain: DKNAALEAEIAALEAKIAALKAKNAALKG

4H2389-AA = target: T40, 4H2389-AA
T40 chain: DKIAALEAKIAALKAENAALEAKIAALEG

4H2698-AA = target: T41, 4H2698-AA; settings: mean of both orientations
T41 chain: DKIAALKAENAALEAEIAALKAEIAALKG

4H3395-AA = target: T42, 4H3395-AA; settings: mean of both orientations
T42 chain: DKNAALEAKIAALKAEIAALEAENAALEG

4H745-AA = target: T43, 4H745-AA; settings: mean of both orientations
T43 chain: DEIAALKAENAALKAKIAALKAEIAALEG

4H536-AA = target: T44, 4H536-AA; settings: mean of both orientations
T44 chain: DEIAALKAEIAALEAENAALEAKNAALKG

4H3697-AA = target: T45, 4H3697-AA; settings: mean of both orientations
T45 chain: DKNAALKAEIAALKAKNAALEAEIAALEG

4H3753-AA = target: T46, 4H3753-AA; settings: mean of both orientations
T46 chain: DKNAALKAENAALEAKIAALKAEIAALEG

4H3009-AA = target: T47, 4H3009-AA; settings: mean of both orientations
T47 chain: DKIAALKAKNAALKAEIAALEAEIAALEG

4H797-AA = target: T48, 4H797-AA; settings: mean of both orientations
T48 chain: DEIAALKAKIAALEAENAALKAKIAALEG

Sequence of 4H_GCN4 (chain, as listed by the source): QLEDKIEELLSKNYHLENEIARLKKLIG

DEIAALEAKNAALEAENAALEAKIAALKG [4H406-AA]
interaction score (4H_GCN4): -1.67
interaction score (4H688-AA): -1.54
interaction score (4H_APH): -1.29
interaction score (GCN2_T): -1.43
interaction score (4H963-AA): -1.6
interaction score (4H56-AA): -1.47
interaction score (4H406-AA): -0.644
interaction score (4H_BCR): -2.11
interaction score (4H452-AA): -0.548

DKNAALEAKIAALKAENAALEAEIAALEG [4H3409-AA]
interaction score (4H3940-AA): -1.12
interaction score (4H87-AA): -1.93
interaction score (4H816-AA): -1.37
interaction score (4H775-AA): -1.25
interaction score (4H3409-AA): -1.02
interaction score (4H3625-AA): -0.625
interaction score (4H510-AA): 0.697
interaction score (4H390-AA): -1.28

DKIAALEAKIAALKAENAALEAKIAALEG [4H2389-AA]
interaction score (4H930-AA): -0.305
interaction score (4H3130-AA): 1.81
interaction score (4H3016-AA): 0.227
interaction score (4H485-AA): 0.153
interaction score (4H3590-AA): -0.0915
interaction score (4H310-AA): 1.8
interaction score (4H2865-AA): 1.02
interaction score (4H3381-AA): -0.842
interaction score (4H458-AA): -0.364
interaction score (4H2725-AA): -0.942
interaction score (4H909-AA): -1.35
interaction score (4H710-AA): 0.392
interaction score (4H94-AA): 1.99
interaction score (4H2473-AA): -1.3
interaction score (4H570-AA): 1.65
interaction score (4H3865-AA): -0.601
interaction score (4H850-AA): -0.804
interaction score (4H629-AA): -0.106
interaction score (4H2649-AA): 1.07
interaction score (4H3410-AA): -1.2
interaction score (4H891-AA): -0.959
interaction score (4H2438-AA): -0.27
interaction score (4H3165-AA): 0.858
interaction score (4H3120-AA): -0.79
interaction score (4H2389-AA): 2.02
interaction score (4H2698-AA): -0.843
interaction score (4H3395-AA): -1.54
interaction score (4H745-AA): -1.25
interaction score (4H536-AA): -0.282
interaction score (4H3697-AA): -1.74
interaction score (4H3753-AA): -1.26
interaction score (4H3009-AA): 1.53
interaction score (4H797-AA): 1.3
